Reference: publication PMC12786357
Values belong to the molecule of their own block, whether it stands above or below them.

Columns and labels:
[1] = biological target: S. cerevisiae GPI transamidase (GPIT) complex (S. cerevisiae); experiment: cryo-EM structure; dimeric GPIT peak of the SEC, about 5 mg/mL, in GDN; overall resolution 4.4 Å; two copies of the monomer model docked as rigid bodies
[2] = anti-FLAG western blot, HEK293F; details: glycan lost; control: wild type
[3] = FACS, surface GFP-V5-CWP2 in yeast chromosomal mutants; details: glycan lost; control: wild type

- stoichiometry N [1]: 2
Molecule: S. cerevisiae GPI transamidase (GPIT) complex

B1: Gpi17: N228Q (protein)
parent chain: MSNANLRKWVGFCFVAIYLFLGVPLWYKLTTVYRASLPINYIESLQNNKFQDIHLVIPVYVKSDTYRFPDVHDAIQVQVNHLLNSQEQRVPWSLQVLPYNETIEQMESEGNQFHVVTLKLDEFIGYSSAYDTKETLVYYDDAAVLSNDLPFFVAQTLVEHTFQLEWTHLNKTCEGVSTNNDVAISYDPNIHLSVTLLSGDGNPVAWEIEPTLTDYFSPFRKFLSPLVNFTVDSSIVYHNDLNLHSLNGSCTSVTWFDLSHTIDLSELSSMAYYPEDSALNLAIVFPSASSSPDGLAFINGTRISDEITTLDWNSYLVPQWGVIIINKMPLKPNSVISEDYLEPMMYRFATDIFQLLGLTEGSQDLLSPYITIDSFKRLTILQNLDKATETLWSLVKLTQQFQGMSIPREVSDNVIEALDLRLQIIDLLNDPGKGGDIVWNNALHLSNELVKLCEKAFFNGEMVQQNFFPQEHMIAVYLPLLGPISAVMFFGFYNVMKEKNQKSKKNGTEREVAKEKLELKEAQKLHAIDGEDEL
- expression_or_secretion [2]: no change
- enzymatic_activity [3]: decreases

B2: Gpi17: N299Q (protein)
parent chain: MSNANLRKWVGFCFVAIYLFLGVPLWYKLTTVYRASLPINYIESLQNNKFQDIHLVIPVYVKSDTYRFPDVHDAIQVQVNHLLNSQEQRVPWSLQVLPYNETIEQMESEGNQFHVVTLKLDEFIGYSSAYDTKETLVYYDDAAVLSNDLPFFVAQTLVEHTFQLEWTHLNKTCEGVSTNNDVAISYDPNIHLSVTLLSGDGNPVAWEIEPTLTDYFSPFRKFLSPLVNFTVDSSIVYHNDLNLHSLNGSCTSVTWFDLSHTIDLSELSSMAYYPEDSALNLAIVFPSASSSPDGLAFINGTRISDEITTLDWNSYLVPQWGVIIINKMPLKPNSVISEDYLEPMMYRFATDIFQLLGLTEGSQDLLSPYITIDSFKRLTILQNLDKATETLWSLVKLTQQFQGMSIPREVSDNVIEALDLRLQIIDLLNDPGKGGDIVWNNALHLSNELVKLCEKAFFNGEMVQQNFFPQEHMIAVYLPLLGPISAVMFFGFYNVMKEKNQKSKKNGTEREVAKEKLELKEAQKLHAIDGEDEL
- expression_or_secretion [2]: no change
- enzymatic_activity [3]: decreases

B3: Gpi16: N29Q (protein)
parent chain: MILTLAYFMLGTLLLGVFAEDTVSQIGINDSLWYPYDEALVLKPLPNNDLLLSFAFQLQSEPFDPAVSSMSYDAYEHYTTFPRAIPPLLESTATRQFHLRFTRGFWDALSWGQLPHAGKEAGASGVELWSQVQAMDQEQAFHNWKKLSNSLSGLFCSSLNFIDESRTTFPRRSYASDIGAPLFNSTEKLYLMRASLPNEPICTENLTPFIKLLPTRGKSGLTSLLDGHKLFDSLWNSISLDIATICSEDEDALCHYEMDARIEMVTHVPSALARGERPIPKPLDGNTLRCDTDKPFDSYQCFPLPEPSQTHFKLSQLFARPINNGNLFANRPTRICAEVDRSTWTAFLSVDDTIFSTHDNCFDLSNDQNEGGSGYDFILESTDTTKVTPIVPVPIHVSRSLTGNGQDRGGMRIVFHNDNDTPVKLIYFESLPWFMRVYLSSLQITSTTSPQLQENDIILDKYYLQAADRKRPGHLEFTMLIPANTDIVMTYQFDKALLQFAEYPPDANHGFEIDAAVITVLSLESSSSLYEMRTSTLLLSLSTPDFSMPYNVIILTSTIMGLIFGMLYNLMVKRMVTVEEADKITLQSGLKYKLLKLKEKFLGKKKTKTD
- expression_or_secretion [2]: no change
- enzymatic_activity [3]: no change

B4: Gpi16: N184Q (protein)
parent chain: MILTLAYFMLGTLLLGVFAEDTVSQIGINDSLWYPYDEALVLKPLPNNDLLLSFAFQLQSEPFDPAVSSMSYDAYEHYTTFPRAIPPLLESTATRQFHLRFTRGFWDALSWGQLPHAGKEAGASGVELWSQVQAMDQEQAFHNWKKLSNSLSGLFCSSLNFIDESRTTFPRRSYASDIGAPLFNSTEKLYLMRASLPNEPICTENLTPFIKLLPTRGKSGLTSLLDGHKLFDSLWNSISLDIATICSEDEDALCHYEMDARIEMVTHVPSALARGERPIPKPLDGNTLRCDTDKPFDSYQCFPLPEPSQTHFKLSQLFARPINNGNLFANRPTRICAEVDRSTWTAFLSVDDTIFSTHDNCFDLSNDQNEGGSGYDFILESTDTTKVTPIVPVPIHVSRSLTGNGQDRGGMRIVFHNDNDTPVKLIYFESLPWFMRVYLSSLQITSTTSPQLQENDIILDKYYLQAADRKRPGHLEFTMLIPANTDIVMTYQFDKALLQFAEYPPDANHGFEIDAAVITVLSLESSSSLYEMRTSTLLLSLSTPDFSMPYNVIILTSTIMGLIFGMLYNLMVKRMVTVEEADKITLQSGLKYKLLKLKEKFLGKKKTKTD
- expression_or_secretion [2]: no change
- enzymatic_activity [3]: no change
